From patent publication US20110250613A1, “Arrayed Multiple Ubiquitin Binding Domains as Linkage-specific Polyubiquitin Affinity Reagents” (THE JOHNS HOPKINS UNIVERSITY, priority 2009, published 2011)

Tests used:
K63-linked diubiquitin [1] = target: K63-linked diubiquitin (UniProt P0CG48); assay: fluorescence anisotropy
K48-linked diubiquitin [2] = target: K48-linked diubiquitin (UniProt P0CG48); assay: fluorescence anisotropy
K48-linked diubiquitin [3] = target: K48-linked diubiquitin (UniProt P0CG48); assay: SPR, GST-UBA captured on anti-GST antibody
[4] = target: K48-linked tetraubiquitin (UniProt P0CG48); assay: fluorescence anisotropy
[5] = target: K63-linked tetraubiquitin (UniProt P0CG48); assay: fluorescence anisotropy
K63-linked diubiquitin [6] = target: K63-linked diubiquitin (UniProt P0CG48); assay: fluorescence anisotropy, divalent-divalent complex fit, non-avid mode
K63-linked diubiquitin [7] = target: K63-linked diubiquitin (UniProt P0CG48); assay: fluorescence anisotropy to high K63-Ub2 concentrations, divalent-divalent complex fit, avid mode
[8] = target: K48-linked tetraubiquitin (UniProt P0CG48); assay: fluorescence anisotropy; remark: listed apart in the source
[9] = target: K63-linked tetraubiquitin (UniProt P0CG48); assay: fluorescence anisotropy; remark: listed apart in the source
[10] = target: K48-linked tetraubiquitin (UniProt P0CG48); assay: fluorescence anisotropy competition with fluorescent Vps27 7aa linker peptide
[11] = target: K63-linked tetraubiquitin (UniProt P0CG48); assay: as above
[12] = target: K63-linked tetraubiquitin (UniProt P0CG48); assay: SPR, captured on anti-GST antibody
[13] = target: K48-linked tetraubiquitin (UniProt P0CG48); assay: fluorescence anisotropy, ratio of Kd
[14] = target: K48-linked tetraubiquitin (UniProt P0CG48); assay: SPR, GST-UBA captured on anti-GST antibody
K63-linked diubiquitin [15] = target: K63-linked diubiquitin (UniProt P0CG48); assay: SPR, GST-UBA captured on anti-GST antibody
[16] = target: K63-linked tetraubiquitin (UniProt P0CG48); assay: SPR, GST-UBA captured on anti-GST antibody
[17] = target: K63-linked tetraubiquitin (UniProt P0CG48); assay: SPR Kd of GST-UBA1 against fluorescence anisotropy Kd of the free domain
K63-linked diubiquitin [18] = target: K63-linked diubiquitin (UniProt P0CG48); assay: ITC, single-site model
K63-linked diubiquitin [19] = target: K63-linked diubiquitin (UniProt P0CG48); assay: ITC, single-site model; unit mM, evidently µM
K63-linked diubiquitin [20] = target: K63-linked diubiquitin (UniProt P0CG48); assay: fluorescence anisotropy; Rap80 tUIM with 9-alanine linker
[21] = target: K48-linked tetraubiquitin (UniProt P0CG48); assay: fluorescence anisotropy, ratio of Kd for Ub4 chains
K63-linked diubiquitin [22] = target: K63-linked diubiquitin (UniProt P0CG48); assay: fluorescence anisotropy; remark: listed apart in the source
K48-linked diubiquitin [23] = target: K48-linked diubiquitin (UniProt P0CG48); assay: fluorescence anisotropy; remark: listed apart in the source
K48-linked diubiquitin [24] = target: K48-linked diubiquitin (UniProt P0CG48); assay: fluorescence anisotropy, against K63-Ub2
[25] = target: K48-linked tetraubiquitin (UniProt P0CG48); assay: fluorescence anisotropy, against K63-Ub4
[26] = target: K63-linked tetraubiquitin (UniProt P0CG48); assay: fluorescence anisotropy, solution state
K63-linked diubiquitin [27] = target: K63-linked diubiquitin (UniProt P0CG48); assay: fluorescence anisotropy, alanine linker series
K63-linked diubiquitin [28] = target: K63-linked diubiquitin (UniProt P0CG48); assay: fluorescence anisotropy competition against the fluorescent Rap80 tUIM peptide at saturating K63-Ub2

## Rap80_nolinker (peptide)
K63-linked diubiquitin [1]
  Kd: 47 µM

## Rap80_S101E (peptide)
K48-linked diubiquitin [2]
  Kd: 170 µM
K63-linked diubiquitin [1]
  Kd: 16 µM

## GST-Ubc1 UBA (from UniProt P21734 167-215)
K48-linked diubiquitin [3]
  Kd: 460 µM

## Rap80 tandem UIMs (wt) peptide, His6-tagged, fluorescein-labelled
[4]
  Kd: 14 µM
K63-linked diubiquitin [1]
  Kd: 21.6 µM
[5]
  Kd: 3.6 µM
K63-linked diubiquitin [6]
  Kd: 1000 µM
K63-linked diubiquitin [7]
  Kd: 22 µM
[8]
  Kd: 15 µM
[9]
  Kd: 3.8 µM

## Vps27 (wt) tandem UIM peptide
K48-linked diubiquitin [2]
  Kd: 211 µM
K63-linked diubiquitin [1]
  Kd: 67 µM
[10]
  Kd: 31 µM
[11]
  Kd: 29 µM

## GST-fmm (functionally monomeric mixture; GST-His/GST-Ede1 heterodimer) (from UniProt P34216 1336-1381)
[12]
  Kd: 23 µM

## Ataxin3 (wt) tandem UIM peptide
K48-linked diubiquitin [2]
  Kd: 100 µM
[4]
  Kd: 3.3 µM
K63-linked diubiquitin [1]
  Kd: 91 µM
[5]
  Kd: 15 µM
[13]
  fold preference over K63-Ub4: 5 fold

## GST-hHR23A UBA1
K48-linked diubiquitin [3]
  Kd: 36 µM
[14]
  Kd: 13 µM
K63-linked diubiquitin [15]
  Kd: 26 µM
[16]
  Kd: 4.7 µM
[17]
  fold tighter than the free domain: > 6 fold

## Rap80 tUIM peptide with a C-terminal 3-amino acid extension (DWS)
K63-linked diubiquitin [18]
  n (sites): 0.97 sites
K63-linked diubiquitin [19]
  Kd: 17600 µM

## Rap80 tUIM with 9-alanine linker
K63-linked diubiquitin [20]
  Kd: 92 µM

## Rap80_DLKAAIQ (peptide)
K48-linked diubiquitin [2]
  Kd: 129 µM
K63-linked diubiquitin [1]
  Kd: 10 µM

## Rap80 ataxin linker (peptide)
K48-linked diubiquitin [2]
  Kd: 143 µM
[4]
  Kd: 3.4 µM
K63-linked diubiquitin [1]
  Kd: 115 µM
[5]
  Kd: 20 µM
[21]
  fold K48 preference: 6 fold

## fluorescein-labeled hHR23A-UBA1 domain (from UniProt P54725 159-201)
[8]
  Kd: 9 µM
[9]
  Kd: 30 µM

## ataxin-3 Rap80 linker (peptide)
K48-linked diubiquitin [2]
  Kd: 160 µM
[4]
  Kd: 7.8 µM
K63-linked diubiquitin [1]
  Kd: 60 µM
[5]
  Kd: 11 µM

## Rap80 tUIM peptide with no 6xHis-tag and fluorescein on a C-terminal lysine side chain (expressed protein ligation)
K63-linked diubiquitin [22]
  Kd: 19 µM

## Ubc1 UBA, His-tagged, Alexa-fluor 546 labelled
[8]
  Kd: 37 µM
[9]
  Kd: 170 µM

## Dsk2 UBA, fluorescein-labelled (from UniProt P48510 327-371)
[13]
  fold difference in Kd for K63- and K48-Ub4: < 2 fold
[8]
  Kd: 1.4 µM
[9]
  Kd: 2.2 µM

## Rap80 UIM2 peptide, fluorescein-labelled
K48-linked diubiquitin [23]
  Kd: 200 µM

## Ddi1 UBA, fluorescein-labelled
[13]
  fold difference in Kd for K63- and K48-Ub4: < 2 fold
[8]
  Kd: 50 µM
[9]
  Kd: 92 µM

## Ede1_rhodamine (from UniProt P34216 1338-1381)
K48-linked diubiquitin [24]
  fold preference for K48-polyUb: < 2 fold
[25]
  fold preference for K48-polyUb: < 2 fold
K48-linked diubiquitin [23]
  Kd: 86 µM
[8]
  Kd: 31 µM
K63-linked diubiquitin [22]
  Kd: 120 µM
[9]
  Kd: 54 µM

## Rap80 UIM1 peptide, fluorescein-labelled
K48-linked diubiquitin [23]
  Kd: 280 µM

## Rap80_S101A (peptide)
K48-linked diubiquitin [2]
  Kd: 152 µM
K63-linked diubiquitin [1]
  Kd: 11 µM

## GST-DRM2 UBA1 (from UniProt Q9M548 106-154)
K48-linked diubiquitin [3]
  Kd: 140 µM
K63-linked diubiquitin [15]
  Kd: 89 µM

## GST-Ede1 UBA (from UniProt P34216 1336-1381)
K48-linked diubiquitin [3]
  Kd: 110 µM
[14]
  Kd: 25 µM
K63-linked diubiquitin [15]
  Kd: 48 µM
[16]
  Kd: 6 µM

## Rap80 (1-233), fluorescein-labelled (from UniProt Q96RL1 1-233)
[26]
  fold preference over K48-Ub4: 7 fold
[8]
  Kd: 23 µM
[9]
  Kd: 3.4 µM

## Rap80 tUIM with 9-alanine linker (peptide)
K63-linked diubiquitin [27]
  fold weaker than 7 A: > 25 fold

## unlabeled Rap80 tUIM peptide
K63-linked diubiquitin [28]
  Ki: 24 µM

## Rap80_ARLEEKV (peptide)
K48-linked diubiquitin [2]
  Kd: 230 µM
K63-linked diubiquitin [1]
  Kd: 17 µM
